Test results as given in patent publication US20240192215A1 (E AND S HEALTHCARE, published 2024).

How the values were obtained:
Test in all cases: peptide microarray, anti-mouse IgG DyLight 650, MMC2 heatmap (Example 17)
Peptide_069 = biological target: T1, Peptide_069
T1 peptide: VIFLEVDVDDCQDVA
Experimental: (§1) 5, 1, 0.2, 0.04, 0.008 and 0.0016 μg/mL serial dilutions were incubated on a single multi-well microarray slide at 30° C. for 1 hour. The slide includes 21 individual mini-arrays (one mini-array per sample dilution).
(§2) DyLight 650 was used as a label. False-positive binding to a peptide was evaluated by performing one additional control incubation in which only a secondary antibody was applied on the same microarray slide. Before performing each step, the microarrays were washed with a washing buffer.
(§3) To visualize the obtained results and compare binding regions across individual cultures, as shown in FIGS. 21A to 21D, heatmap diagrams were calculated. In FIGS. 21A to 21D, the fluorescence intensity is expressed in a color-coded manner, white indicates no binding, and red indicates strong binding. For all evaluations, the MMC2-value of the average pixel fluorescence for each peptide was calculated.

Peptide_068 = biological target: T2, Peptide_068
T2 peptide: NVIFLEVDVDDCQDV
Experimental: as §1, §2, §3

Peptide_080 = biological target: T3, Peptide_080
T3 peptide: QDVASECEVKCMPTF
Experimental: as §1, §2, §3

Peptide_072 = biological target: T4, Peptide_072
T4 peptide: LEVDVDDCQDVASEC
Experimental: as §1, §2, §3

Peptide_099 = biological target: T5, Peptide_099
T5 peptide: KGQKVGEFSGANKEK
Experimental: as §1, §2, §3

Peptide_008 = biological target: T6, Peptide_008
T6 peptide: HSQHHHHHHHHVKQI
Experimental: as §1, §2, §3

Peptide_009 = biological target: T7, Peptide_009
T7 peptide: SQHHHHHHHHVKQIE
Experimental: as §1, §2, §3

Peptide_078 = biological target: T8, Peptide_078
T8 peptide: DCQDVASECEVKCMP
Experimental: as §1, §2, §3

Peptide_074 = biological target: T9, Peptide_074
T9 peptide: VDVDDCQDVASECEV
Experimental: as §1, §2, §3

Peptide_108 = biological target: T10, Peptide_108
T10 peptide: GANKEKLEATINELV
Experimental: as §1, §2, §3

Peptide_089 = biological target: T11, Peptide_089
T11 peptide: KCMPTFQFFKKGQKV
Experimental: as §1, §2, §3

Peptide_017 = biological target: T12, Peptide_017
T12 peptide: HHVKQIESKTAFQEA
Experimental: as §1, §2, §3

Peptide_061 = biological target: T13, Peptide_061
T13 peptide: SLSEKYSNVIFLEVD
Experimental: as §1, §2, §3

Peptide_033 = biological target: T14, Peptide_033
T14 peptide: DAAGDKLVVVDFSAT
Experimental: as §1, §2, §3

Peptide_100 = biological target: T15, Peptide_100
T15 peptide: GQKVGEFSGANKEKL
Experimental: as §1, §2, §3

Peptide_059 = biological target: T16, Peptide_059
T16 peptide: FHSLSEKYSNVIFLE
Experimental: as §1, §2, §3

Peptide_058 = biological target: T17, Peptide_058
T17 peptide: FFHSLSEKYSNVIFL
Experimental: as §1, §2, §3

Peptide_104 = biological target: T18, Peptide_104
T18 peptide: GEFSGANKEKLEATI
Experimental: as §1, §2, §3

Peptide_067 = biological target: T19, Peptide_067
T19 peptide: SNVIFLEVDVDDCQD
Experimental: as §1, §2, §3

Peptide_007 = biological target: T20, Peptide_007
T20 peptide: VHSQHHHHHHHHVKQ
Experimental: as §1, §2, §3

Peptide_063 = biological target: T21, Peptide_063
T21 peptide: SEKYSNVIFLEVDVD
Experimental: as §1, §2, §3

Peptide_037 = biological target: T22, Peptide_037
T22 peptide: DKLVVVDFSATWCGP
Experimental: as §1, §2, §3

Peptide_060 = biological target: T23, Peptide_060
T23 peptide: HSLSEKYSNVIFLEV
Experimental: as §1, §2, §3

Peptide_041 = biological target: T24, Peptide_041
T24 peptide: VVDFSATWCGPCKMI
Experimental: as §1, §2, §3

Peptide_066 = biological target: T25, Peptide_066
T25 peptide: YSNVIFLEVDVDDCQ
Experimental: as §1, §2, §3

Peptide_031 = biological target: T26, Peptide_031
T26 peptide: ALDAAGDKLVVVDFS
Experimental: as §1, §2, §3

Peptide_011 = biological target: T27, Peptide_011
T27 peptide: HHHHHHHHVKQIESK
Experimental: as §1, §2, §3

Peptide_090 = biological target: T28, Peptide_090
T28 peptide: CMPTFQFFKKGQKVG
Experimental: as §1, §2, §3

binding result (Peptide_069): no binding (tested: 5 ug/mL)
binding result (Peptide_068): no binding (tested: 5 ug/mL)
binding result (Peptide_080): no binding (tested: 5 ug/mL)
binding result (Peptide_072): no binding (tested: 5 ug/mL)
binding result (Peptide_099): no binding (tested: 5 ug/mL)
binding result (Peptide_008): no binding (tested: 5 ug/mL)
binding result (Peptide_009): no binding (tested: 5 ug/mL)
binding result (Peptide_078): no binding (tested: 5 ug/mL)
binding result (Peptide_074): no binding (tested: 5 ug/mL)
binding result (Peptide_108): no binding (tested: 5 ug/mL)
binding result (Peptide_089): no binding (tested: 5 ug/mL)
binding result (Peptide_017): binds
binding result (Peptide_061): no binding (tested: 5 ug/mL)
binding result (Peptide_033): no binding (tested: 5 ug/mL)
binding result (Peptide_100): no binding (tested: 5 ug/mL)
binding result (Peptide_059): no binding (tested: 5 ug/mL)
binding result (Peptide_058): no binding (tested: 5 ug/mL)
binding result (Peptide_104): no binding (tested: 5 ug/mL)
binding result (Peptide_067): no binding (tested: 5 ug/mL)
binding result (Peptide_007): no binding (tested: 5 ug/mL)
binding result (Peptide_063): no binding (tested: 5 ug/mL)
binding result (Peptide_037): no binding (tested: 5 ug/mL)
binding result (Peptide_060): binds
binding result (Peptide_041): no binding (tested: 5 ug/mL)
binding result (Peptide_066): no binding (tested: 5 ug/mL)
binding result (Peptide_031): no binding (tested: 5 ug/mL)
binding result (Peptide_011): no binding (tested: 5 ug/mL)
binding result (Peptide_090): no binding (tested: 5 ug/mL)
B1: monoclonal antibody B264 (antibody, mouse IgG1, kappa, V domains shown)
VH: QVQLQQSGAELARPGASVKMSCKASGYTFTSYTMHWVKQRPGQGLEWIGYINPTSDYTNYNQKFKDKATLTADKSSSTAYMQLSSLTSEDSAVYFCASEGGFLYYFDYWGQGTTLTVSS
VL: DVLMTQTPLSLPVSLGDQASISCRSSQSIVHSNGNTYLEWYLQKPGQSPKLLIYKVSNRFSGVPDRFSGSGSGTDFTLKISRVEAEDLGVYYCFQGSHVPYTFGGGTKLEIKR
notes: also called AB264; B264 (Trx1-mIgG1)
